Assay results: patent publication US20140271456A1, “RADIOTRACER IMAGING USING SODIUM IODIDE SYMPORTER POLYPEPTIDES” (Mayo Foundation for Medical Education and Research, priority 2013, published 2014)
“Also recorded” adds a separate entry of the source.

Tests used:
[1] = system: NIS expressing organs (thyroid and stomach) and BXPC-3-hNIS tumor; assay: SPECT/CT dual isotope imaging of nude mice with BXPC-3-hNIS tumors; settings: four hours after i.p. 250 μCi of each isotope
Procedure: FIG. 6. SPECT/CT dual isotope imaging of nude mice implanted with SQ BXPX-3-hNIS tumors. Animals were injected i.p with 250 μCi ^125I and 250 μCi ^99mTc and imaged four hours later. Images were processed using Vivo Quant software. The scale was adjusted manually to get minimal yellow in the tissues.
The stomach and thyroid signals were subtract from the SPECT dataset (FIG. 5). In this experiment, nude female mice (5-week of age) were injected with 3×10^6 BXPC-3-hNIS cells. When tumors reached a diameter of 1 cm, mice were injected I.P. with ^125I sodium iodide (250 μCi) and/or ^99mTc-pertechneate (250 μCi). Four hours post isotope administration, SPECT/CT data were acquired with U-SPECT-II (MiLabs). The SPECT emission data were collected in dual-energy windows to separate the gamma emision energy counts from ^99mTc (140 keV) and ^125I (35 keV). […] Radioiodide thyroid signal subtraction was performed by normalizing the ^125I SPECT data to thyroid tissue on the ^99mTc SPECT data using the image arithmetic tools available in PMOD image fusion software. This was performed in three steps by (1) calculating the normalization factor (i.e., the inverse ratio between the maximum voxel value corresponding to the thyroid tissue on the ^125I SPECT and the maximum voxel value corresponding to the thyroid tissue on the ^99mTc SPECT data set), (2) multiplying each voxel in the ^125I SPECT dataset by this normalization factor, and (3) subtracting the normalized ^125I SPECT dataset from ^99mTc SPECT data set to generate a thyroid subtraction SPECT dataset (FIG. 5C). Similarly, ^99mTc stomach signal subtraction was performed by (1) calculating the normalization factor which in this case is the inverse ratio of the maximum voxel value corresponding to the stomach tissue on the ^99mTc SPECT to the maximum voxel value corresponding to the stomach tissue in the ^125I SPECT data set, (2) multiplying each voxel in the ^99mTc SPECT dataset by this normalization factor, and (3) subtracting the normalized ^99mTc SPECT dataset from ^125I SPECT data set to generate a stomach subtraction SPECT dataset (FIG. 5B).

[2] = system: NIS polypeptide-mediated uptake in stomach; assay: NIS imaging of a mouse fed oral CT contrast agent by gavage; format: in vivo; settings: mouse with NIS transduced liver, then imaged
Description: In the following example, ingestion of barium sulfate was used to enable and enhance discrimination of NIS expression in the liver.

NIS = target: T1, NIS (Homo sapiens, UniProt Q92911); assay: iodide mediated quenching of YFP-H148Q/I152L fluorescence; format: cell-based; settings: 5 mM KClO4; quenching mediated by 200 mM NaI; FIG. 3
T1 construct: expressed in transfected cells; host or cells: cells transduced with the lentiviral vector
T1 sequence (Q92911 1-643): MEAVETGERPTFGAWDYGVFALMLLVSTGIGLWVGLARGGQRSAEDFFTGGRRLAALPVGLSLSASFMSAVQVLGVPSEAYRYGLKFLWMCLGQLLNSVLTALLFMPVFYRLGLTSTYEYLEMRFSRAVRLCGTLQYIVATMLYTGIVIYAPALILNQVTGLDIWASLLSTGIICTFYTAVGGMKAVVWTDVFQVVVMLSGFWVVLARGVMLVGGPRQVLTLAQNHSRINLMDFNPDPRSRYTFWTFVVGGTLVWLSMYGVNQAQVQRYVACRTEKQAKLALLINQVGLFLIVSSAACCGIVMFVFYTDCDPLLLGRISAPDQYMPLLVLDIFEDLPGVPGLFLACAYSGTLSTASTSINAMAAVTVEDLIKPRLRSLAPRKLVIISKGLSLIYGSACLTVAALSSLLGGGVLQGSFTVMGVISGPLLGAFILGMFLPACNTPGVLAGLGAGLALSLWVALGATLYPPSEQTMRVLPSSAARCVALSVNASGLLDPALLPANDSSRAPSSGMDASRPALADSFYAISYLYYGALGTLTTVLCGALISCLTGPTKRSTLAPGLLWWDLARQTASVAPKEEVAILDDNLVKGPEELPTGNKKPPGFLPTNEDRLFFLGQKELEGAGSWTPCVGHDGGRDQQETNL
Procedure: 72 hours post infection, the cells are subjected to two color flow cytometry to determine the percentage of cells that express YFP-H148Q/I152L and are tagged with anti-HA antibody conjugated to Alexa Fluor 647. To determine the percentage hNIS variants that can transport iodide into the cell, infected cells are treated with 200 μM NaI. The quenching of YFP-H148Q/I152L fluorescence (output for intracellular iodide uptake) is analyzed by flow cytometry.
Five million cells are infected at a moi of 1 with the lentiviral library transducing HA-hNIS variants. On the third day post infection, the cells are expanded to increase the number of cells expressing each unique NIS variant to limit the potential of it being lost during the selection procedure. On day 5, infected cells that fluoresce brightly are selected for by fluorescence-activated cell sorting (FACS) and collected in HBSS/HEPES buffer Immediately thereafter, these cells are incubated for 5 minutes with KClO4 at a concentration that inhibits iodide transport by non-mutated NIS. Then, NaI is added to the cells to a finale concentration of […], and the cells are incubated for 10 minutes at 37° C. Cells whose fluorescence is quenched in the presence of KClO4 are selected for by flow sorting. […]

NIS expressing cells = settings: less efficiently than iodide; cited from earlier work
Mel624 cells = assay: radiotracer uptake assay in Mel624 cells stably expressing NIS polypeptides; format: cell-based, human; settings: for uptake of pertechnetate (Technetium-99m) / uptake of radioiodide (Iodine-125): Mel624 cells stably expressing the NIS polypeptide, 37° C. for 1 hour, +/−300 μM KClO4, gamma counter
Procedure: Mel624 cells stably expressing a wild-type human NIS polypeptide (Mel-NIS) or one of two mutant NIS polypeptides (Mel-NIS-93E or Mel-NIS-93Q) were plated in 96-well plates at a density that would lead them to confluency on the day of the uptake assay. 1× Hank's balanced salt solution with calcium, magnesium (HBSS) (Cellgro) and 1 mM HEPES was adjusted to pH 7.3 using KOH (HBBS-HEPES) on the day of the assay. Culture medium was removed from the cells, and 150 μL of HBSS-HEPES+/−300 μM KClO4 was added to the wells. The cells were incubated for 10 minutes at room temperature prior to the addition of radiotracer. Radiotracers, ^125I and ^99mTc, were diluted in HBSS-HEPES to about 70,000 to 100,000 CPM/25 μL (CPM, counts per minute). 25 μL of radiotracer was added to the cells in HBSS-HEPES+/−KClO4, and the cells were incubated at 37° C. for 1 hour. The cells were then washed twice with cold HBSS-HEPES buffer and lysed to release the intracellular radiotracer by adding 200 μL 1M NaOH. Lysates were transferred to strip tubes and quantified using a gamma counter.

[3] = system: BxPC3 cells (human pancreatic tumor cells); assay: 123I/99mTc subtraction SPECT of BxPC3 tumors expressing NIS or NIS-93E in athymic mice; format: in vivo; settings: subcutaneous BxPC3 tumors; four hours after i.p. 123I and 99mTcO4
Procedure: Image subtraction is used to discriminate a tumor that concentrates only one of two NIS isotopes from organs that concentrate both isotopes (e.g., thyroid gland, stomach, and salivary glands). BxPC3 cells (human pancreatic tumor cells) stably expressing either wild-type human NIS polypeptides or human mutant NIS-93E polypeptides are implanted subcutaneously in the flanks of athymic mice. Once tumors grow to a diameter of 5-8 mm, ^123I/^99mTc subtraction SPECT is performed using a dual-detector SPECT camera. Four hours after the intraperitoneal administration of 250 μCi ^123I sodium iodide and 250 μCi ^99mTcO4, SPECT/CT data are acquired. The SPECT emission data are collected in dual-energy windows to separate the ^99mTc and ^123I counts. The ^99mTc window is centered at 140 keV, and the ^123I window is placed with a 4% offset above 159 keV to minimize the spillover of the ^99mTc photopeak into the much less intense ^123I photopeak. SPECT reconstruction is performed for each of the two acquisition windows. ^123I SPECT voxel intensities on thyroid tissue are normalized to the corresponding ^99mTc SPECT data, and in this way a normalization factor is determined Each voxel in the ^123I SPECT dataset is then multiplied by this normalization factor, and the normalized ^123I SPECT data is subtracted from the ^99mTc SPECT data to create a subtraction SPECT dataset. […]

For `[O]=[99Tc](=[O])(=[O])[O-]` [^99mTc, ^99mTc-pertechneate], the accumulation in stomach [1] was “preferentially accumulates” and the “accumulation in tumor (BXPC-3-hNIS)” value [1] was “does not discriminate between the two isotopes; also recorded: accumulate both isotopes to similar concentrations”.

With `[125I-].[Na+]` [^125I, ^125I sodium iodide] the accumulation in thyroid [1] was “preferentially accumulates” and the “accumulation in tumor (BXPC-3-hNIS)” value [1] was “does not discriminate between the two isotopes; also recorded: accumulate both isotopes to similar concentrations”.

In the case of `O=S(=O)([O-])[O-].[Ba+2]` [barium sulfate], the “isotope signals from the stomach” value [2] is reported as “reduced isotope signals from the stomach” and the “isotope signals from the stomach” value ([2]; listed as oral contrast agent) is reported as “significant reduction of the stomach signal”.

For `[K+].[O-][Cl+3]([O-])([O-])[O-]` [perchlorate, KClO4], the “effect on iodide mediated quenching of YFP-H148Q/I152L” value (NIS) is given as “inhibition” and the “efficiency of concentration in NIS expressing cells compared to iodide anions” value (NIS expressing cells) is given as 10 fold.

B1: NIS-93E: mutant human sodium iodide symporter polypeptide, amino acid sequence SEQ ID NO:1 (FIG. 4) (protein, listed as Homo sapiens)
chain: MEAVETGERPTFGAWDYGVFALMLLVSTGIGLWVGLARGGQRSAEDFFTGGRRLAALPVGLSLSASFMSAVQVLGVPSEAYRYGLKFLWMCLEQLLNSVLTALLFMPVFYRLGLTSTYEYLEMRFSRAVRLCGTLQYIVATMLYTGIVIYAPALILNQVTGLDIWASLLSTGIICTFYTAVGGMKAVVWTDVFQVVVMLSGFWVVLARGVMLVGGPRQVLTLAQNHSRINLMDFNPDPRSRYTFWTFVVGGTLVWLSMYGVNQAQVQRYVACRTEKQAKLALLINQVGLFLIVSSAACCGIVMFVFYTDCDPLLLGRISAPDQYMPLLVLDIFEDLPGVPGLFLACAYSGTLSTASTSINAMAAVTVEDLIKPRLRSLAPRKLVIISKGLSLIYGSACLTVAALSSLLGGGVLQGSFTVMGVISGPLLGAFILGMFLPACNTPGVLAGLGAGLALSLWVALGATLYPPSEQTMRVLPSSAARCVALSVNASGLLDPALLPANDSSRAPSSGMDASRPALADSFYAISYLYYGALGTLTTVLCGALISCLTGPTKRSTLAPGLLWWDLARQTASVAPKEEVAILDDNLVKGPEELPTGNKKPPGFLPTNEDRLFFLGQKELEGAGSWTPCVGHDGGRDQQETNL
In the case of B1, the “iodide versus TcO4 concentrating efficiency” value (Mel624 cells) is reported as “concentrate iodide with greater efficiency than TcO4”, the “concentration of Iodine-125 uptake in tumor cells as compared to non-mutated NIS (NIS WT)” value (Mel624 cells; FIGS. 1A and 1B) is reported as “decrease” and the “uptake of pertechnetate (Technetium-99m)” value (Mel624 cells) is reported as “not pertechnetate”. The “uptake of radioiodide (Iodine-125)” value (Mel624 cells) was “capable of up-taking radioiodide”, the “uptake of pertechnetate (Technetium-99m)” value (Mel624 cells; listed as G93E) was “not Technetium-99m” and the “uptake of radioiodide (Iodine-125)” value (Mel624 cells; listed as G93E) was “selectively transports Iodine-125”. For the same molecule, the “uptake of pertechnetate (Technetium-99m)” value (Mel624 cells; listed as NIS-G93E) was “not Technetium-99m”, the “uptake of radioiodide (Iodine-125)” value (Mel624 cells; listed as NIS-G93E) was “transport selectively Iodine-125” and the “isotope concentration by tumors expressing the polypeptide, subtraction SPECT” value [3] was “concentrate only iodide and not pertechnetate”.

B2: wild-type human NIS polypeptide: wild-type human sodium iodide symporter polypeptide (protein, UniProt Q92911 1-643, looked up)
Sodium/iodide cotransporter: MEAVETGERPTFGAWDYGVFALMLLVSTGIGLWVGLARGGQRSAEDFFTGGRRLAALPVGLSLSASFMSAVQVLGVPSEAYRYGLKFLWMCLGQLLNSVLTALLFMPVFYRLGLTSTYEYLEMRFSRAVRLCGTLQYIVATMLYTGIVIYAPALILNQVTGLDIWASLLSTGIICTFYTAVGGMKAVVWTDVFQVVVMLSGFWVVLARGVMLVGGPRQVLTLAQNHSRINLMDFNPDPRSRYTFWTFVVGGTLVWLSMYGVNQAQVQRYVACRTEKQAKLALLINQVGLFLIVSSAACCGIVMFVFYTDCDPLLLGRISAPDQYMPLLVLDIFEDLPGVPGLFLACAYSGTLSTASTSINAMAAVTVEDLIKPRLRSLAPRKLVIISKGLSLIYGSACLTVAALSSLLGGGVLQGSFTVMGVISGPLLGAFILGMFLPACNTPGVLAGLGAGLALSLWVALGATLYPPSEQTMRVLPSSAARCVALSVNASGLLDPALLPANDSSRAPSSGMDASRPALADSFYAISYLYYGALGTLTTVLCGALISCLTGPTKRSTLAPGLLWWDLARQTASVAPKEEVAILDDNLVKGPEELPTGNKKPPGFLPTNEDRLFFLGQKELEGAGSWTPCVGHDGGRDQQETNL
With B2 the “uptake of pertechnetate (Technetium-99m)” value (Mel624 cells) was “Substantial uptake” and the “uptake of radioiodide (Iodine-125)” value (Mel624 cells) was “Substantial uptake”.
